Measured values published in the DeepSol protein solubility set.

assay: soluble on expression in E. coli; label from the status in PepcDB or PDB records

Sequence	soluble on expression in E. coli
MCDSHQKEEDNANTSERALFFNYHEFSYSFYEDLGSEDAKPTEHDEDHKLCITHFPNVYAARGSAEFQVTRVVRVPRRFDESRSSLETPQFSTQLPGSEPAAIVGDDGTSFVRCGRYDIGDHVFGCSSVSPLSEYLSAAELAEVVHRVNGFLLREEGEVFGWRNLSGLLLDMLTGGLWSWVLGPLLSRPVFQESLALEQYVAQLNSPGGLLHERGVRLVLPRRSGCLSLDFVVPRPK	not soluble
MCEIFIRANQRSYSVQARSLRLHGVATSVRLEQLFWDVLEEIAARDGMRVTQLIERLYDELVQYRGEAANFTSFLRVCCLRYQVLQAEGRIPADATVPIRSLDAQAVLRGLPANLYDSRPLG	soluble
MCENEEYRERFPDKHFDLETVLQAKVRPICVVPERTFIGFFHREKSKEEEEKEDVSLDFLKGVMSFDSIWEEIMKQEPEESASEHVIYIVSWNDHYFVLLVNHDAYYIIDTLGERVYEGCNQAYVLKFDQDAEIKRLPSVIKDNKADMGSQKQGGKNKYEQPERSKESEEQGEEVVVCRGKESCREYIKSFLAAIPIQQVKADMKEGLVSSFHHRLQIELYYTKHLHHRQPNMFESSTTKVTVSEATVSMTVAWLLASQFSNSGGFGCEMAELLGIKV	soluble
MCFRTENGDFFGWEGVENTVGCGAGTCTHVWNYAQTVAFLFPELEQSMRRIEFLQETQADGYMPFRTYRPFGLPAWEMLPSADGQLGAVVRLYREWRLSGDNRLIEDCWDGVVRSMEYAIRTWDTDGDFVPDSAQHVTYDTELYGMTSMVSTLFFAALIAAAEMAEYMGDQERARRYRDGAEKGAKLMDEKCWNGEYYIQLIDDVDKYRYQYGKGCLSDQLLGQFLAQEAGLGYVLPKNHVKKAAESIFRYNFIERASDFGHVQRAYIFNDEMGLTPCTWPLGERPRFPFIYFGEVWTGIEYEVAALLIREDLLEEGLTIVKAVRDRQDGYRRNPWSENESGYYYTRAMASYSILNALSGFSCDQRKNQMSFQPKLNQDNFRCFWCNGKSWGIFSQKKEKGEIRQELQVLYGEKDVSVINLEHHHHHH	not soluble
MCGIFAYLNFLAPKKRSEIVDILVQGLQRMEYRGYDSAGIAIDGSNDIENPHSKIALLRKRGKVSVLNDYIKENNEKLNMDMEYNIHCGIAHTRWATHGSPRDVNSHPHRSNDNNEFLVVHNGIITNYREIKEYLEKKGHKFESETDTEVIAKLTQHVHDRYPDFSFRQLVETVIQQLEGAFALAFKSSRFPGQLVASRRGSPLLVGIKSNSTLHTSHFPVSYSKGRCFMSNNATHLREETSFVETPNNILDLSIAVRNPSGSAKLPDNNSTTRPFDSTDFEVEYFIASDAAAIIEHTKQVLFLEDDDVAFVEDGSLTIHRISRHADSGEQKREVQLLELEIQEIMKGSYKTFMQKEIFEQPESVVNTMRGRVLPSGQVVLGGLKEYLPAIKRCRRLIMVACGTSYHSAIACRQVLEELSELPVVVELASDFLDRETPIFRNDVCLFISQSGETADTLMALRYCKPRGALTIGVTNTVGSSIGRESHCGIHINAGPEIGVASTKAYTSQIVSLLLFALTISEDRISKMKRRAEIIDALNNLPILIRDVLDLDDQVLKIAEQIYKDKSLLIMGRGLNFATCLEGALKIKELSYMHCEGIMSGELKHGPLAMVDEFLSICMVVCNDHVYKKSLNALQQVVARKGAPIIIADSSVPESDLAGMKHVLRVPRTVDCVQNILTVIPLQLLSYHIAELNGANVDRPRNLAKSVTVE	not soluble
MCGIVGFIGEQDAKEILLKGLEKLEYRGYDSAGIAVQAENGVVVYKEKGRIAKLREIVDENVAASVGIGHTRWATHGVPSKVNAHPHQSTSKRFTLVHNGVIENYELVKKEYLQDVTFVSETDTEVIVQLMEQQVSTGLSVEEAFRNTLSLLHGSYAIGLLDAENPNMIYVAKNKSPLLVGVGDNFNVVASDAMAMLQVTDQFIELMDKEIVIVMKESITIKNLQGETIERAPFTAELDASDIEKGTYPHFMLKEIDEQPLVIRNIIQKYQDENGEIELDQDIRNAILDSDRIYIIACGTSYHAGLVGKQFIEKFAKMPVEVHVASEFSYNMPLLTERPFFIYISQSGETADSRAVLVQTNEMGHKALTITNVPGSTLSREADYTLPLYAGPEIAVASTKAYTAQLAVLSILAADIAKAKGEVLGFDLTHELGLVANAMIELCDQKEEMDALAKQFLATTRNCFFIGRSVDFYVGLEGALKLKEISYIQAEGFAGGELKHGTIALIENGTPVIALATQEHVNLGIRGNVKEVVARGANPCIISMKGLEMEGDSFVLPAVHEALAPLVAVIPLQLISYYAALHRECDVDKPRNLAKSVTVE	not soluble
MCGRFAQSQTREDYLALLAEDIERDIPYDPEPIGRYNVAPGTKVLLLSERDEHLHLDPVFWGYAPGWWDKPPLINARVETAATSRMFKPLWQHGRAICFADGWFEWKKEGDKKQPFFIYRADGQPIFMAAIGSTPFERGDEAEGFLIVTAAADQGLVDIHDRRPLVLSPEAAREWMRQEISGKEASEIAASGCVPANQFSWHPVSRAVGNVKTRARSLEHHHHHH	not soluble
MCGRFTLTLPPDLLAEIIGEIEAARVQPRYNIAPAQEVAVVRQDAGGRRHLDYLRWGLIPPWAKDASVGNHMINARSETVAEKPAFRHAFRSRRCLVLASGFYEWKAEGNRKQPLYIHMKDGGPMVFAGLWESWKSPEGAIVESCTILTTYSNSLIRPLHDRMPVILGRSDWDIWLSREATSEELTPLFQPYPSDLLAMYPVGTGVNSPRNDSPDLLEPLNEPLEHHHHHH	not soluble
MCIGVPGQIRAIDGNQAKVDVCGIQRDVDLTLVGSCDENGQPRLGQWVLVHVGFAMSVINEAEARDTLDALQNMFDVEPDVGALLYGEER	not soluble
MCMHLSSPALPIGGFSYSQGLEAAIELGLVHDEASTLAWIESQLVTVMARAEAPLWLLFEAWRAGDDAAAHGWNQWFHASRETRELRQETEQMGRSLARLAQELGWGTAATRAAVAALRPATLPAVHACACAMWALPREAGLGAYVFSWLENQVAAAIKGVPLGQMAGQRMLERLRAGLPAVLADARARAGATPPRLDTFAPQYALVSARHETQFSRLFRSAAALEHHHHHH	not soluble
MCPCPHSQAQGETDGEAEWHNAALDFTHAMSYGDYLKLDKVLDAQFPLSPDHNEMLFIIQHQTSELWMKLMLHELRAAREHVKSGKLGPALKMLARVSRIFDQLVHAWAVLATMTPTEYNTIRPYLGQSSGFQSYQYREIEFILGNKNATLLKPHAHRAELLAALEQALHTPSLYDEAIRLMAAQGLPVSQERLARDAAAGTCYEASVEAAWRQVYQAPERYWDLYQLAEKLIDLEDSFRQWRFRHVTTVERIIGFKPGTGGTEGVGYLRSMLDTILFPELWRLRSNL	not soluble
MCQFIETIRIEDGQVYNLSYHTARMNRTRAAFWKEAAPIDLSGFISPPSLSGIWKCRIVYDKEIEEVGYTPYQMRMVSSLRPVASDTIDYSYKSTNREELNDLFARRGKADDILIVKDGYLTDTSIANIALYDGHTWYTPAHPLLQGTKRAELLDNRFIVEKDIRQAQLGDYSHIMLFNAMIDWKRLIIPVNEKYFIL	not soluble
MCRMFLCHGNFGEDAGRLFLALSETAKNDPLLVKAGSTWTSHSDGWGMAMLSDGSIRFEKHSRPVYEDSVPTIISSGTVLAHARKASPGEPLGNAFSHPFYAEDERYIVLLAHNGSLDKHRIANCDPKCYDRNTDSGLFLSYIMTFPGTVKERFERAIFESLKNGVFGKLTNLLVVALDKFTMIEERLYFSHNASRSEYGDLYLVNGRGWTGVFSSSILMSAHFPAYVSKSKVENDTVMDLP	not soluble
MCTKNETKPLPSFIEERLNFHIQDLIKSNENQKHLVLGKRPSENAVVMQSNDYLSLSHNELIQKAHRDAISERDDNVVMSAIFLQDDQSKPAFEHQLATFVGMESCLLSQSGWAANIGLLQTICAPNLPVYIDFFAHMSLWEGARTAGAQIHPFMHNNMNHLRKQIQRHGAGIIVVDSVYSTIGTIAPLRAIYEMAKEFDCGLVVDESHSLGTHGPEGSGLLQKLGLTQMVDFVTVSLAKTFAYRAGAILGPNKLAQSLPFVAYPAIFSSTVLPQEVVRLEKTLEVIKAADDKRECLFKRAKELAIGLKRIGFNIRSESQIIALECGSERNTERVRDFLEERDVFGAVFCRPATGRNKNIIRFSVNADMTAQQVDHVLSACQEAFDHPDLEFV	not soluble
MDAIFLKLDNIKGESQVEGFEDQIEIMSYSHNVAMQVNNDVSLTERTSGRAHVGEMSLTKFVDLATPVLNEYCCSGRLIRTAVLTLCRNDDGKMRSLIVYTLTNVLISQLSVSGGAGGKPVETMSLNFTKIEWQITAEKSDGAQQESRTSVWDLAMNQIGK	not soluble
